Data on one molecule can be found in publication PMC9288967 (Chem, 2022).

As a reminder, the Kd is the constant that tells how readily two partners part at equilibrium. Lower therefore signals a tighter complex.

Assay in all cases: BLI
Test [1] addresses spike RBD of the Alpha variant (B.1.1.7) (SARS-CoV-2, Alpha (B.1.1.7), N501Y).
Test [2] deals with spike RBD of the Epsilon variant (SARS-CoV-2, Epsilon (B.1.429), strain).
Test [3] deals with spike RBD of the Lambda variant (SARS-CoV-2, Lambda (C.37), strain).

B1: mNb6(WT) (VHH)
VHH: QVQLVESGGGLVQAGGSLRLSCAASGYIFGRNAMGWYRQAPGKERELVAGITRRGSITYYADSVKGRFTISRDNAKNTVYLQMNSLKPEDTAVYYCAADPASPAYGDYWGQGTQVTVSS
B1: the Kd was found to be 1.5 nM in test [1], 1.32 ± 0.11 nM in test [2] and 2.86 ± 0.77 nM in test [3].
